Measured values as given in article PMC8047445.

Assays:
[1] = target: cHSP27 (isolated alpha-crystallin domain of HSP27) (human) (UniProt P04792); assay: NMR titration; earlier TITAN lineshape fit of the HSQC titration, as told in the first response to reviewers
[2] = target: cHSP27 (isolated alpha-crystallin domain of HSP27) (human) (UniProt P04792); assay: 15N CPMG relaxation dispersion NMR; earlier two-state fit of the CPMG RD data, as told in the first response to reviewers; koff = kex(1-pB), kon = kex pB/[L]free
[3] = target: cHSP27 (isolated alpha-crystallin domain of HSP27) (human) (UniProt P04792); assay: 15N CPMG relaxation dispersion NMR; same data as a2; pB fixed at the value expected from the titration Kd (4.9% WT, 7.2% P182L) and delta R2 allowed to be non-zero
[4] = target: cHSP27 (isolated alpha-crystallin domain of HSP27) (human) (UniProt P04792); assay: 15N CPMG relaxation dispersion NMR; 2H,15N-cHSP27 1.5 mM with 80 µM WT or 200 µM P182L peptide, 25 °C, 11.7 and 14.1 T; naive two-state fit (delta R2 = 0), kon and koff from pB and kex; apparent
[5] = target: cHSP27 (isolated alpha-crystallin domain of HSP27) (human) (UniProt P04792); assay: NMR titration; 2D 1H-15N HSQC titration of 15N-cHSP27 (oxidised, disulfide-linked dimer) with unlabelled peptide, 25 °C, 30 mM sodium phosphate, 2 mM EDTA, pH 7; two-state 2D lineshape fit with TITAN on fast- and slow-exchange residues; apparent
[6] = target: cHSP27, isolated alpha-crystallin domain (ACD) of HSP27, oxidized disulfide-linked dimer (human) (UniProt P04792); assay: NMR titration; same HSQC titration, 25 C; 2D lineshape analysis with TITAN, fast- and slow-exchange residues fitted globally
[7] = target: cHSP27, isolated alpha-crystallin domain (ACD) of HSP27, oxidized disulfide-linked dimer (human) (UniProt P04792); assay: NMR 15N CPMG relaxation dispersion; 2H,15N-cHSP27 (oxidized dimer) 1.5 mM with 80 uM WT peptide or 200 uM P182L peptide, 25 C, 500 and 600 MHz; naive two-state fit
[8] = target: cHSP27, isolated alpha-crystallin domain (ACD) of HSP27, oxidized disulfide-linked dimer (human) (UniProt P04792); assay: NMR titration; 2D 1H-15N HSQC of 15N-cHSP27 (oxidized dimer) with unlabeled peptide, 25 C, 30 mM sodium phosphate, 2 mM EDTA, pH 7; global fit of CSPs of fast-exchange resonances to a two-state model (equation 2)

Row | koff [1] | koff [2] | kon [2] | koff [3] | kon [3] | kon [4] | koff [5] | kon [5] | Kd [6] | Kd [7] | koff [7] | pB (percent of cHSP27 bound, by CPMG RD) [7] | Kd [8] | Substance
1 | 774 s⁻¹ | 840 s⁻¹ | 83000 M⁻¹ s⁻¹ | 547 s⁻¹ | 500000 M⁻¹ s⁻¹ | 73000 M⁻¹ s⁻¹ | 771 s⁻¹ | 600000 M⁻¹ s⁻¹ | – | – | – | – | – | P182L peptide (C-terminal IxI/V peptide of HSP27 with the CMT mutation P182L)
2 | – | – | – | – | – | – | – | – | 1280 µM | 8370 µM | 610 s⁻¹ | 2% | 1030 µM | P182L peptide comprising the mutated IxI/V (ILV) motif of the HSP27 C-terminal region
3 | – | 759 s⁻¹ | 300000 M⁻¹ s⁻¹ | 346 s⁻¹ | 2.8e+06 M⁻¹ s⁻¹ | 290000 M⁻¹ s⁻¹ | 207 s⁻¹ | 1.6e+06 M⁻¹ s⁻¹ | – | – | – | – | – | WT peptide (C-terminal IxI/V peptide of HSP27)
4 | – | – | – | – | – | – | – | – | 132 µM | 1760 µM | 515 s⁻¹ | 2.4% | 124 µM | WT peptide comprising the IxI/V (IPV) motif of the HSP27 C-terminal region
